As usually defined, the Kd is the equilibrium constant for the complex coming apart.

The values below come from paper PMC2615086 (The Journal of Cell Biology, 2009).

This assay has as its target T1, Fic1-His6 (S. pombe, UniProt O94701 1-272).
T1 sequence: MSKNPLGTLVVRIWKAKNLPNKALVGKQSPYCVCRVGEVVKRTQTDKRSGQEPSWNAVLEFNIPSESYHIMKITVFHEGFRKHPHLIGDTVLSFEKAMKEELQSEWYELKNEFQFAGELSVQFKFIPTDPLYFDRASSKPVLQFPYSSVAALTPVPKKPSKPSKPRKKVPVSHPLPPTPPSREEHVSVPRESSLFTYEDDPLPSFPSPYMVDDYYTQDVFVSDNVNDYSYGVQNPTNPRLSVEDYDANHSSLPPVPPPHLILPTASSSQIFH
In words: quantitative in vitro binding.

B1: MBP-Cdc15SH3 (domain or fragment)
chain: SSMSLYGEYNKSQPQLSMQRSVSPNPLGPNRRSSSVLQSQKSTSSNTSNRNNGGYSGSRPSSEMGHRYGSMSGRSMRQVSQRSTSRARSPEPTNRNSVQSKNVDPRATFTAEGEPILGYVIALYDYQAQIPEEISFQKGDTLMVLRTQEDGWWDGEIINVPNSKRGLFPSNFVQTV
For the molecule B1, the Kd was about 3000 nM.
